According to the Human Domainome abundance scans (Beltran et al. 2025):

B1: Zinc finger homeobox protein 3, residues 2244 to 2299; numbered along this chain, Q15911 (parent)
chain: SSRTRFTDYQLRVLQDFFDANAYPKDDEFEQLSNLLNLPTRVIVVWFQNARQKARK

Variants of: B1
Experiment: abundance fitness (aPCA) (normalised: wild type 0, dead -1); higher = more abundant; growth selection in yeast, the domain comes from the species named
Details: Homo sapiens

Abundance fitness of substitutions, site by site:
D19: G -0.414, Q -0.263, E 0.172, T 0.046, S -0.299, P -0.686, M 0.169, C -0.036, K -0.164, V -0.141, W -0.329, R -0.012, A -0.024
L38: E -0.278, Q -0.174, V -0.226, P -1.03, G -0.884, S -0.506, T -0.166, Y -0.625, C -0.451, D -1.07, F -0.522, H -0.967, R -0.517, N -0.76, M -0.026, K -0.531
S33: T -0.316, W -0.848, G -0.083, H -0.085, V -0.452, A -0.109, N -0.728, Q -0.507, Y -0.871, K -0.129, D -0.833, R -0.05, I -1.08, M -0.638, C -0.498, E -0.5
Q31: T 0.035, H -0.165, K 0.022, W -0.279, N 0.366, A -0.192, P -0.764, D -0.193, R -0.007, I 0.117, L -0.257, Y -0.186, F 0.162, E -0.066, M -0.146, C -0.031, S -0.082, G -0.055
A20: S -0.065, Q -0.111, V -0.249, R 0.075, F -0.618, E -0.115, P -0.543, T -0.044, W -0.36, N 0.24, I -0.405, L -0.188, D -0.102, Y -0.291, M -0.268, G -0.13
F18: A -0.279, E -0.579, T -0.772, C -0.174, I -0.249, S -0.349, Q -0.268, L -0.19, M -0.298, G -0.984, Y 0.011, N -0.733, W -0.424, V -0.435, K -0.625
F17: W -0.214, P -1.08, S -0.025, N -0.125, M -0.039, Y 0.03, Q -0.47, T -0.074, R 0.084, V -0.124
L32: F -0.546, W -0.56, E -0.957, H -0.878, P -1.02, T -0.497, V -0.151, R -0.856, A -0.568, M 0.003, G -0.842, Y -0.19, S -0.812, I -0.17, C -0.641, D -0.637
L36: D -0.908, V 0.024, P -1.06, E -0.892, R -0.748, C -0.313, T 0.013, Q -0.988, A -0.238, Y -0.86, W -0.811, K -0.95, M -0.375, F -0.659, S -0.272, I -0.459, G -0.929, H -1.06
Y23: N 0.013, M 0.041, F 0.122, L -0.161, D -0.018, V -0.099, E 0.139, W 0.019, C -0.283, I 0.092, A -0.188, G -0.332, R -0.019, Q -0.011, T -0.043, P -0.749, S -0.051, K -0.13
K25: F -0.338, T -0.161, R 0.013, W -0.512, D -0.466, H -0.267, G -0.14, P -0.228, E -0.306, V -0.115, I -0.226, S -0.133, A -0.075, Q -0.26, C -0.184, L -0.136
F29: M -0.271, P -0.915, I 0.071, W -0.27, V -0.102, Y -0.052, H -0.484, A -0.362, N -0.622, R -0.324, K -0.412, T -0.27, L -0.035, S -0.423, D -0.955, Q -0.435
E30: S -0.135, G -0.357
L35: T 0.117, F -0.382, Y -0.129, V 0.041, H -0.088, S 0.007, I 0.067, M 0.085, A -0.078, K 0.201, P -0.918, G -0.06, D 0.115, R 0.085, E -0.107, C -0.176, N -0.004
D26: R -0.16, V -0.055, H -0.683, K -0.1, W -0.376, C -0.506, M 0.018, Y -0.105, S -0.219, L -0.307, G -0.247, Q -0.188, P -0.163, T 0.021, I 0.038, F -0.332, E -0.214
N21: V -0.422, D -0.306, R -0.237, G -0.378, C -0.232, P -0.74, H 0.031, Q -0.26, W -0.722, T 0.011, K 0.166, A -0.428, S -0.157, E -0.262, L -0.912, M -0.394
A22: K -0.17, W -0.054, G 0.015, D 0.219, M 0.106, R -0.147, H -0.125, L -0.129, Q -0.127, E 0.082, F -0.353, I -0.07, Y -0.196, P 0.101, T 0.01, C -0.156, N -0.024, V -0.14
P24: V -0.657, H -0.927, A -0.555, W -0.381, T -0.856, G -1.24, N -0.922, F -0.533, R -0.633, S -0.734
N37: D -0.032, T -0.179, A -0.096, S -0.064, R -0.057, H -0.013, F -0.236, M -0.038, P -0.831, V -0.117, E -0.034, Q -0.12, I -0.289, G -0.046, K -0.009
E28: G -0.488, F -0.603, R -0.481, W -0.719, T -0.236, I -0.374, Y -0.785, H -0.435, Q -0.169, C -0.539, N -0.39, M -0.347, D 0.2, K -0.422, L -0.739, V -0.142, S -0.295
D27: G 0.095, F -0.233, P -0.388, E -0.084, M -0.037, C -0.294, I -0.17, K -0.113, L -0.17, N -0.063, Q -0.121, Y -0.16, W -0.157, V -0.215, R -0.147, A -0.117, S -0.077, T -0.078
N34: A 0.067, Y -0.161, C -0.343, V 0.001, E 0.118, S 0.066, P -0.137, K 0.137, M -0.024, Q -0.208, T -0.145, L -0.17, D -0.199, G -0.058, R -0.113, W -0.61
